Results: patent US20220041738A1 (SAITAMA MEDICAL UNIVERSITY, published 2022)

Key:
Experiment in all cases: immunofluorescence (legend of FIG. 4)
[1] = target: T1, human ALK2-R258S on cells (human, UniProt Q04771 21-509)
T1 sequence: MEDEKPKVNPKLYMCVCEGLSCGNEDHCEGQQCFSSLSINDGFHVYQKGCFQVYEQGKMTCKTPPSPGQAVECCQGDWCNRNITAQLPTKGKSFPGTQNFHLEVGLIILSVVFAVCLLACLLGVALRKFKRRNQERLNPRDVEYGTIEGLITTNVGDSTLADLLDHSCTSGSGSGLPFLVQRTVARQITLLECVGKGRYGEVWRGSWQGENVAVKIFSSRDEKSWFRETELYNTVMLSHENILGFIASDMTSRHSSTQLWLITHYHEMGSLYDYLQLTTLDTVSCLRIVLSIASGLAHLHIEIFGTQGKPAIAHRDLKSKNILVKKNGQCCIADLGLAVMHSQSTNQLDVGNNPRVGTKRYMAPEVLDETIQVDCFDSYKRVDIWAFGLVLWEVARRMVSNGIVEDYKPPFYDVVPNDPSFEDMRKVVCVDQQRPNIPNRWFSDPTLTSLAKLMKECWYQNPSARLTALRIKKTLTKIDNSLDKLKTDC
Method: (§1) Mouse C2C12 cells were seeded into a 96-well plate (Greiner Bio-One) at 0.5×10³ cells/well, and cultured in 15% FBS-containing DMEM medium overnight under the conditions of 5% CO₂ at 37° C. On the following day, the C2C12 cells were transfected with each of a wild-type human ALK2 cDNA integrated into pcDEF3; pcDEF3/human ALK2-L196P, pcDEF3/human ALK2-P197_F198delinsL, pcDEF3/human ALK2-R202I, pcDEF3/human ALK2-R206H, pcDEF3/human ALK2-Q207E, pcDEF3/human ALK2-R258S, pcDEF3/human ALK2-G325A, pcDEF3/human ALK2-G328E, pcDEF3/human ALK2-G328R, pcDEF3/human ALK2-G328W, pcDEF3/human ALK2-G356D, and pcDEF3/human ALK2-R375P, which are variants identified in FOP; and pcDEF3 as a control, using Lipofectamine 2000 (Invitrogen), and further cultured overnight.
(§2) The C2C12 cells were fixed with 10% neutral formalin (Nacalai Tesque, Japan) for 20 minutes at room temperature, and then blocked with 10% goat normal serum for 30 minutes. After the blocking agent was removed, purified IgG diluted to 10 μg/mL with the blocking agent was added, and the cells were left for 1 hour at room temperature. After the cells were washed with PBS three times, Goat Alexa 594-conjugated anti-rat IgG (Invitrogen) diluted to 1:1000 with the blocking agent was added, and the cells were left for 1 hour at room temperature. After the cells were washed with PBS three times, the cells were fixed with 10% neutral formalin for 15 minutes at room temperature, and nuclear-stained with DAPI (LifeTechnologies). Fluorescent signals were analyzed with a fluorescence microscope BZ-9000 (Keyence).

[2] = target: T2, wild-type human ALK2 on cells (cDNA in pcDEF3) (human, UniProt Q04771 21-509)
T2 construct: also called wild-type ALK2; ALK2 (WT)
T2 sequence: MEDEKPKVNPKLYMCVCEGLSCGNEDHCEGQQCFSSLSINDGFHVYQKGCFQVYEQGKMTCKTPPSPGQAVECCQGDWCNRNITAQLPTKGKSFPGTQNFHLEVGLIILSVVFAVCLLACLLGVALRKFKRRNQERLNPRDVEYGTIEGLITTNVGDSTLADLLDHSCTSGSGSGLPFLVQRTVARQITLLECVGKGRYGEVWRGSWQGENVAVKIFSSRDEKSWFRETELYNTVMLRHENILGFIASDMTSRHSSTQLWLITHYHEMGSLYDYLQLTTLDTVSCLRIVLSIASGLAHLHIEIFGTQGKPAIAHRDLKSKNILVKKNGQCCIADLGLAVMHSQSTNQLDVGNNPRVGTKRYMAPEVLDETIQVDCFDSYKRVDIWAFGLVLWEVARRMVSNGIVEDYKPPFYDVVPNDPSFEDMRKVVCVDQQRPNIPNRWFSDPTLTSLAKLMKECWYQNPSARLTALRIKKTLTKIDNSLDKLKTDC
Method: as §1, §2

[3] = target: T3, human ALK2-G328R on cells (human, UniProt Q04771 21-509)
T3 sequence: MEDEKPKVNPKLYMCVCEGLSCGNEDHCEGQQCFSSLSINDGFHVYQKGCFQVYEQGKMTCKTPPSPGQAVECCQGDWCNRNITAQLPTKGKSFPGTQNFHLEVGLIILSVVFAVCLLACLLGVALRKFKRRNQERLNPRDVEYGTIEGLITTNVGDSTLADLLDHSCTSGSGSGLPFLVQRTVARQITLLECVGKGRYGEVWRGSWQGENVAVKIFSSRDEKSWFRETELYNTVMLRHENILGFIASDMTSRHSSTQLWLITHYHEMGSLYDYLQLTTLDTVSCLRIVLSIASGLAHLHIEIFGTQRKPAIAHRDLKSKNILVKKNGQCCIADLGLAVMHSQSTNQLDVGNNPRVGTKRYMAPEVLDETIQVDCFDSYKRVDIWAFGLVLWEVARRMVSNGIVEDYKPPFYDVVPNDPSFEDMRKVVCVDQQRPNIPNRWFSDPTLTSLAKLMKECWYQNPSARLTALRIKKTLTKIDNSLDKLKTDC
Method: as §1, §2

[4] = target: T4, human ALK2-G328E on cells (human, UniProt Q04771 21-509)
T4 sequence: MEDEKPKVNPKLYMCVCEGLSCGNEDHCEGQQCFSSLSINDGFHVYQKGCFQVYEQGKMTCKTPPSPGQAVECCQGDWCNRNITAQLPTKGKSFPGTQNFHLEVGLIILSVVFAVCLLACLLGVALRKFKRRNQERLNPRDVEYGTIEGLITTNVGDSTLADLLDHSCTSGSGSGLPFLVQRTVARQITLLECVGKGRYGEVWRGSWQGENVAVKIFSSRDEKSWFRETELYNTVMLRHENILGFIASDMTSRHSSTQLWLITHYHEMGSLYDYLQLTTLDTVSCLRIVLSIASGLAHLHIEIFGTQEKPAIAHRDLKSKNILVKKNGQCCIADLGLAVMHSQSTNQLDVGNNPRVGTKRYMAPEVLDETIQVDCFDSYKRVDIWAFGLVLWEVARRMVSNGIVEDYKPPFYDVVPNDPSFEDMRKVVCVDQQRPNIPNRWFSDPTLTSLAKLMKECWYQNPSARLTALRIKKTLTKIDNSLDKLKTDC
Method: as §1, §2

Measured: binding result

B1: rat anti-ALK2 monoclonal antibody A2-11E (antibody, V domains shown)
VH: EVQLVETGGGLVQPGRSLKLSCVASGFTFSNYYMYWIRQAPGKGLEWISSINTDGGSTYYPDSVKGRFAISRDNAENTVYLQMNSLRSEDTATYYCAKSTPNIPLAYWGQGTLVTVSS
VL: DIQMTQSPSLLSASVGDRVTLSCKASQNIYKYLNWFQQKLGEAPKLLIYYSNSLQTGIPSRFSGSGSGTDFTLTISSLQPEDVAIYFCFQYSSGPTFGPGTKLELKR
notes: Rat monoclonal IgG from a hybridoma; also called 11E2
binds: [1] | [2] | [3] | [4]

B2: rat anti-ALK2 monoclonal antibody A2-15A (antibody, V domains shown)
VH: EVQLVESGGGLVQPGRSLKLSCAASGFTFSHYYMAWVRQAPTKGLEWVASITNSGGSINYRDSVKGRFTISRDNAKSTLYLQMDSLRSEDTATYYCTREGGENYGGYPPFAYWGQGTLVTVSS
VL: DIVLTQSPALAVSLGQRATISCRANQGVSLSRYNLMHWYQQKPGQKPKLLIYRSSNLASGIPARFSGSGSGTDFTLTINPVQADDIATYYCQQSRESPFTFGAGTKLELKR
notes: Rat monoclonal IgG from a hybridoma; also called 15A6
binds: [1] | [2] | [3] | [4]
